Residue numbers refer to the chain shown, from its start.
T1: recombinant human CD122 (human, UniProt P14784 27-239, limits assumed)
T1 construct: also called IL-2Rβ
T1 sequence (looked up): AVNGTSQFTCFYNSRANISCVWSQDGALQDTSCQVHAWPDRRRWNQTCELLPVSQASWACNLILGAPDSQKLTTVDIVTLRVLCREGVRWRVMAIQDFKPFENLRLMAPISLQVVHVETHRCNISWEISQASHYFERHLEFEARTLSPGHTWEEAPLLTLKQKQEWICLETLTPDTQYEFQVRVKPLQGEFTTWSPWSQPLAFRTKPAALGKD

T2: recombinant human CD132 (human, UniProt P31785 23-262, limits assumed)
T2 construct: also called IL-2Rγ
T2 sequence (looked up): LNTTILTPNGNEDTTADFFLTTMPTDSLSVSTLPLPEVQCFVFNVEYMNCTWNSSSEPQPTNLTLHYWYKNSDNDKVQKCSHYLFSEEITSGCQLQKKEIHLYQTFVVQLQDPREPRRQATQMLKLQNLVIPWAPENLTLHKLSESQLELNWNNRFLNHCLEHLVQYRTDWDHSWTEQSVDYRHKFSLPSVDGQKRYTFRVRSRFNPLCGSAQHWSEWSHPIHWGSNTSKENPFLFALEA

T3: human CD132 on HEK293 cells (human, UniProt P31785 23-369)
T3 construct: whole, on cells; also called cell surface CD132
T3 sequence (looked up): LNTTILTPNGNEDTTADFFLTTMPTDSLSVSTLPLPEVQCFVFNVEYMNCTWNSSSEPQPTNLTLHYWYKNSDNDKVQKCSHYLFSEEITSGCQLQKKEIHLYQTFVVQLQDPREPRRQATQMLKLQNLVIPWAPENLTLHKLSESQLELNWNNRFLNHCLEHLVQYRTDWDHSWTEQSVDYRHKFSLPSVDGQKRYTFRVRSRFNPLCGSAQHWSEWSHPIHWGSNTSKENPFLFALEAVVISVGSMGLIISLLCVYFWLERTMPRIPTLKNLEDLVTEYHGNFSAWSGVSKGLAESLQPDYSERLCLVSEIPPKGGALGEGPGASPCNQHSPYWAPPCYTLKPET

T4: human CD122 on HEK293 cells (human, UniProt P14784 27-551)
T4 construct: whole, on cells; also called cell surface CD122
T4 sequence (looked up): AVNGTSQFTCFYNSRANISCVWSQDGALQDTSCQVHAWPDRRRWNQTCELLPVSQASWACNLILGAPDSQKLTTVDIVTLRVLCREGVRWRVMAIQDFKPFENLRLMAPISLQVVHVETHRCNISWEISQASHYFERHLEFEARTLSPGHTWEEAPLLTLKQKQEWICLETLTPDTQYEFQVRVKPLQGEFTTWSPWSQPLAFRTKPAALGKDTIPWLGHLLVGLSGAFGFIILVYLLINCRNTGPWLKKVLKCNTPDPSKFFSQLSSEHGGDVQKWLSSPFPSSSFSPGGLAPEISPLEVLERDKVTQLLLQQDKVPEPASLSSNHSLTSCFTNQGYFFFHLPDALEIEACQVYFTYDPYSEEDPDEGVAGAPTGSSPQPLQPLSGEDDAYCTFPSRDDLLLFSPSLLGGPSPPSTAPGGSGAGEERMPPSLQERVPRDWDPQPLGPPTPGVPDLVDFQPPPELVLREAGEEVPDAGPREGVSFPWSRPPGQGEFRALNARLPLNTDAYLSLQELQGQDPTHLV

T5: CD122/CD132 complex on HEK-Blue IL-2 cells (UniProt P14784 27-551; P31785 23-369, limits assumed)
T5 sequence (looked up) 1: T4 sequence (looked up)
T5 sequence (looked up) 2: T3 sequence (looked up)

B1: huFIT2019-86b-26 (bispecific antibody, human IgG1, kappa, L234A L235A)
chain 1: not shown
chain 2: EVQLVQSGAEVKKPGASVKVSCKASGYTFTDYVISWVRQATGQGLEWMGEIYPGDAQTYYNEMFKGRVTLTADTSISTAYMELSSLRSEDTAVYYCARGSYTYDNYAMDFWGQGTTVTVSSASTKGPSVFPLAPSSKSTSGGTAALGCLVKDYFPEPVTVSWNSGALTSGVHTFPAVLQSSGLYSLSSVVTVPSSSLGTQTYICNVNHKPSNTKVDKKVEPKSC
chain 3: not shown
B2: huFIT2019-86b-34 (bispecific antibody, human IgG1, kappa, L234A L235A)
chain 1: not shown
chain 2: B1 chain 2 with A56G, Q57N, L70M, A72R
chain 3: not shown
B3: huFIT2019-86b-29 (bispecific antibody, human IgG1, kappa, L234A L235A)
chain 1: not shown
chain 2: B1 chain 2 with L70M, A72R
chain 3: not shown
B4: huFIT2019-86b-30 (bispecific antibody, human IgG1, kappa, L234A L235A)
chain 1: not shown
chain 2: B1 chain 2 with L70M, A72R
chain 3: not shown
B5: huFIT2019-86b-27 (bispecific antibody, human IgG1, kappa, L234A L235A)
chain 1: not shown
chain 2: B1 chain 2 with R38K, M48I, V68A, T74K
chain 3: not shown
B6: huFIT2019-86b-33 (bispecific antibody, human IgG1, kappa, L234A L235A)
chain 1: not shown
chain 2: B1 chain 2 with A56G, Q57N, L70M, A72R
chain 3: not shown
B7: huFIT2019-86b-31 (bispecific antibody, human IgG1, kappa, L234A L235A)
chain 1: not shown
chain 2: B1 chain 2 with L70M, A72R
chain 3: not shown
B8: huFIT2019-86b-28 (bispecific antibody, human IgG1, kappa, L234A L235A)
chain 1: not shown
chain 2: B1 chain 2 with T28R, T30S, R38K, M48I, V68A, T74K, Y95F
chain 3: not shown
B9: huFIT2019-86b-36 (bispecific antibody, human IgG1, kappa, L234A L235A)
chain 1: not shown
chain 2: B1 chain 2 with A56G, Q57N, L70M, A72R
chain 3: not shown
B10: huFIT2019-86b-46 (bispecific antibody, human IgG1, kappa, L234A L235A)
chain 1: not shown
chain 2: B1 chain 2 with Q57N, L70M, A72R
chain 3: not shown
B11: huFIT2019-86b-35 (bispecific antibody, human IgG1, kappa, L234A L235A)
chain 1: not shown
chain 2: B1 chain 2 with A56G, Q57N, L70M, A72R
chain 3: not shown
B12: huFIT2019-86b-48 (bispecific antibody, human IgG1, kappa, L234A L235A)
chain 1: not shown
chain 2: B1 chain 2 with A56G, Q57N, L70M, A72R
chain 3: not shown
B13: huFIT2019-86b-50 (bispecific antibody, human IgG1, kappa, L234A L235A)
chain 1: not shown
chain 2: B1 chain 2 with A56G, Q57N, L70M, A72R
chain 3: not shown
B14: huFIT2019-86b-32 (bispecific antibody, human IgG1, kappa, L234A L235A)
chain 1: not shown
chain 2: B1 chain 2 with A56G, Q57N, L70M, A72R
chain 3: not shown
notes: also called huFIT9-86b-32
B15: huFIT2019-86b-47 (bispecific antibody, human IgG1, kappa, L234A L235A)
chain 1: not shown
chain 2: B1 chain 2 with D55E, A56G, Q57N, L70M, A72R
chain 3: not shown
B16: huFIT2019-86b-45 (bispecific antibody, human IgG1, kappa, L234A L235A)
chain 1: not shown
chain 2: B1 chain 2 with L70M, A72R
chain 3: not shown
B17: huFIT2019-86b-49 (bispecific antibody, human IgG1, kappa, L234A L235A)
chain 1: not shown
chain 2: B1 chain 2 with A56G, Q57N, L70M, A72R
chain 3: not shown
B18: Duo2019-86b (bispecific antibody, human IgG1, kappa, L234A L235A)
heavy 1: EVQLQQPGSELVRPGASVKLSCKASGYTFTSYWMHWMKQRPGQGLEWIGHIYLGGGATNYAEKFRSKATLTADTSSSTAYMQLSSLTSEDSAVYYCTRSQPYYYGMDSWGQGTSVTVSSASTKGPSVFPLAPSSKSTSGGTAALGCLVKDYFPEPVTVSWNSGALTSGVHTFPAVLQSSGLYSLSSVVTVPSSSLGTQTYICNVNHKPSNTKVDKKVEPKSCDKTHTCPPCPAPEAAGGPSVFLFPPKPKDTLMISRTPEVTCVVVDVSHEDPEVKFNWYVDGVEVHNAKTKPREEQYNSTYRVVSVLTVLHQDWLNGKEYKCKVSNKALPAPIEKTISKAKGQPREPQVYTLPPSREEMTKNQVSLTCLVKGFYPSDIAVEWESNGQPENNYKTTPPVLDSDGSFLLYSKLTVDKSRWQQGNVFSCSVMHEALHNHYTQKSLSLSPGK
light 1: DIQMTQTPSSLSASLGDRVTISCRASQDISNYLNWYQQKPDGTVKLLIYYKSRLHSGVPSRFSGSGSGTEYSLTINNLEQEDFATYFCHQGHTIPFTFGSGTKLEIKRTVAAPSVFIFPPSDEQLKSGTASVVCLLNNFYPREAKVQWKVDNALQSGNSQESVTEQDSKDSTYSLSSTLTLSKADYEKHKVYACEVTHQGLSSPVTKSFNRGEC
heavy 2: QVQLQQSGPELVKPGASVKMSCKASGYRFSDYVISWVKQRSGQGLEWIGEIYPGDGNTYYNEMFKGRATLTADKSPNTAYMKLSSLTSEDSALYFCARGSYTYDNYAMDFWGQGTSVTVSSASTKGPSVFPLAPSSKSTSGGTAALGCLVKDYFPEPVTVSWNSGALTSGVHTFPAVLQSSGLYSLSSVVTVPSSSLGTQTYICNVNHKPSNTKVDKKVEPKSCDKTHTCPPCPAPEAAGGPSVFLFPPKPKDTLMISRTPEVTCVVVDVSHEDPEVKFNWYVDGVEVHNAKTKPREEQYNSTYRVVSVLTVLHQDWLNGKEYKCKVSNKALPAPIEKTISKAKGQPREPQVYTLPPSREEMTKNQVSLTCLVKGFYPSDIAVEWESNGQPENNYKTTPPVLDSDGSFFLYSRLTVDKSRWQQGNVFSCSVMHEALHNHYTQKSLSLSPGK
light 2: DVLMTQTPLSLPVSLGDQASISCRSSQNIVHSNGNTYLEWYLQKPGQSPKLLIYKVSNRFSGVPDRFSGSGSGTDFTLKISRVEAEDLGLYYCFQGSHIPWTFGGGTKLEIKRTVAAPSVFIFPPSDEQLKSGTASVVCLLNNFYPREAKVQWKVDNALQSGNSQESVTEQDSKDSTYSLSSTLTLSKADYEKHKVYACEVTHQGLSSPVTKSFNRGEC
notes: 1+1 asymmetric IgG1 made by Fab-arm exchange; printed both as Duo2019-86 and Duo2019-86b

Molecular target: T1, recombinant human CD122
Test: GCI (WAVEsystem)
Experimental: (§1) Binding affinity and kinetics constants of humanized CD122/CD132 FIT-Ig were determined using a label-free biosensor on WAVEsystem (Creoptix AG, Switzerland) by grating-coupled interferometry (GCI). Briefly, a PCP WAVEchip (Creoptix AG) was pre-immobilized with goat anti-human IgG Fc antibody to a density of 3830 pg/mm² by amine coupling, and used to capture humanized CD122/CD132 FIT-Ig generated from Example 3.2.1 to a density of ˜90 pg/mm², then exposed to recombinant human/cyno CD122 or CD132 serially diluted (3× dilutions from 200 nM to […] for human CD122, human CD132 and cyno CD132, respectively; and from 1000 nM to 1.37 nM for cyno CD122) in 1X HBS-EP+ buffer (Cytiva, Cat No. BR100669) by injection at 60 μL/min for 250s to assess association, followed by 1200s dissociation. After each round of association and dissociation, WAVEchip surface was regenerated by subject to pH 1.5 Glycine-HCl buffer injection at 60 μL/min for 120s. Sensorgrams were recorded at 25° C., the data were analyzed on WAVEcontrol (Creoptix AG) and double referenced by subtracting the signals from blank injections and the reference channel. A Langmuir 1:1 model was used for data fitting.

binding result | Binder
binds | B1
binds | B2
binds | B3
binds | B4
binds | B5
binds | B6
binds | B7
binds | B8
binds | B9

Molecular target: T2, recombinant human CD132
Test: GCI (WAVEsystem)
Experimental: as §1

binding result | Binder
binds | B1
binds | B2
binds | B3
binds | B4
binds | B10
binds | B11
binds | B5
binds | B12
binds | B6
binds | B7
binds | B13
binds | B8
binds | B14
binds | B15
binds | B9
binds | B16
binds | B17

Molecular target: T3, human CD132 on HEK293 cells
Test: Flow cytometry (MFI) on HEK293 cells overexpressing human CD132; the table gives no unit, the axis is Fab conc.(nM)
Experimental: (§2) Briefly, a 96-well plate was seeded with 3×10⁵ cells each well, centrifuged at 400 g for 5 minutes and supernatants discarded, then added 100 μl of antibody (5× serial dilutions, 0.0064 to 100 nM) each well and gently mixed. After 60 minutes of incubation at 4° C., plates were washed several times to remove excess antibodies. Secondary fluorochrome-conjugated goat anti-human IgG antibody (Jackson Immunoresearch, Cat No. 109-606-098) was then added and incubated with cells at 4° C. for 20 minutes. After another round of centrifugation and washing, cells were resuspended in assay buffer (1X PBS containing 2% FBS) for reading on a flow-cytometer. Median Fluorescence Intensity (MFI) readouts were plotted against antibody concentration and analyzed with GraphPad Prism 6.0 software.

EC50 [nM] | Binder
11.4 | B18

Molecular target: T4, human CD122 on HEK293 cells
Test: Flow cytometry (MFI) on HEK293 cells overexpressing human CD122; the table gives no unit, the axis is Fab conc.(nM)
Experimental: as §2

EC50 [nM] | Binder
1.63 | B18

Molecular target: T5, CD122/CD132 complex on HEK-Blue IL-2 …
Test: cell-based or functional assay

EC50 from SEAP reporter gene assay [nM] | Binder
0.119 | B10
0.163 | B11
0.168 | B12
0.286 | B13
0.163 | B14
0.121 | B15
0.106 | B16
0.216 | B17

— patent publication US20250002594A1 (SHANGHAI EPIMAB BIOTHERAPEUTICS, published 2025)
